assay: soluble on expression in E. coli; label from the status in PepcDB or PDB records

Row | Sequence | soluble on expression in E. coli
1 | MIEFHNVHKTYRVAGKEIPALHPTNLRVDDGQVFGIIGHSGAGKSTLLRLINRLETPSGGQIVVDGEDVTALDANGLRRFRQQVGMIFQHFNLLASRTVADNVAMPLTLAGDMPRKQIDQRVAELLERVGLSDHAKKYPAQLSGGQKQRVGIARALATKPKILLCDEATSALDPQTTASVLQLLAEINRELKLTIVLITHEMDVIRRVCDQVAVMDAGVIVEQGKVADVFLHPQHSTTKRFVQEDDQVDENEQRDDFAHVQGRIVRLTFQGDATYAPLLGTVARETGVDYSILAGRIDRIKDTPYGQLTLAITGGDMDAAFARFTAADVHMEVLR | not soluble
2 | MIEGIIEEIRTNGSFLITTHENPDGDAVGSSLALAGYLRRLGKDVTIHFCDPVPDLYAFLPLAEEVTRTVPDRDYDICFVLDVGEFRRAGKQIAECKRIKKFINIDHHLTSDNFGFINYIDPKAAATGILVHRIITGAGDVVGYETALCLYTAIITDTGSFRYSNANPEAFAIAGELVSTGINTWSIAEKLYESQPRERLELLALALSTLTISPRGEYASITVTLDMYNKTGASAELTDGFVNYPRSIRGVEVSVFFREINPGLFKVGFRSKGKIDVSRIAAAFGGGGHHNAAGATMNGSLEGIKATLFSHLESTLLEHHHHHH | not soluble
3 | MIELKEVVKEYRTKNKEVLAVDHVNLSIRAGSIYGVIGFSGAGKSTLIRMFNHLEAPTSGEVIIDGDHIGQLSKNGLRAKRQKVNMIFQHFNLLWSRTVLKNIMFPLEIAGVPRRRAKQKALELVELVGLKGREKAYPSELSGGQKQRVGIARALANDPTVLLCDEATSALDPQTTDEILDLLLKIREQQNLTIVLITHEMHVIRRICDEVAVMESGKVIEHGPVTQVFENPQHTVTKRFVKEDLNDDFETSLTELEPLEKDAYIVRLVFAGSTTTEPIVSSLSTAYDIKINILEANIKNTKNGTVGFLVLHIPYISSVDFGKFEKELIERQVKMEVLRHG | not soluble
4 | MIETAIYGKTVDDQSRCVHWHLPKDVIAIRFKCCDKYYACFECHQELSSHPLEKYDLLDDANKHLIICGVCRHEMTFAEYYDYNSNLICPNCRSPFNPGCKLHYHLYFQNPPPAMC | not soluble
5 | MIEYTSGDILRCEADALVNTVNCVGVMGRGIALQFKNMYPANFKAYEAACKREEVQPGRMFVFETKQLTPPRLIINFPTKRHWRGKSRIEDIEAGLVDLVNVIRDKNIRSIAIPPLGAGLGGLDWKEVRPRIEHALGELEGVQVIVYEPNGAPASDKMAHVREVPKMTSGRAALVELMQRYLSGLLDPFVTLLEVHKLMYFMQEAGEPLRLDYIKHHYGPYAKNLRHVLNAIEGHLIAGYADGGDAPDKPLSLVPGAVAEAKSFLDQHEISRARFERVTRLVEGFESPYGLELLATVHWVIHREGATQSDSVKRQIYQWNDRKRQFTQRQLVIAEERLRSQGWLSPETTFTYMAGDPLEHHHHHH | not soluble
6 | MIFDKNFSYAFDENACEKCGGKCCTGESGNIFASKEELEVLRKHLNLESKEFAEKYLRKVGFKMSFKEVECEDGFACIFFDTQKRNCSIYDFRPKQCRTFPFWEYFKTHQKELEKECIGICYLSLEHHHHHH | not soluble
7 | MIFEKAVIVDLRTQVLDVPVQETITKDNVPVRVNAVVYFRVVDPVKAVTQVKNYIMATSQISQTTLRSVIGQAHLDELLSERDKLNMQLQRIIDEATDPWGIKVTAVEIKDVELPAGMQKAMARQAEAERERRARITLAEAERQAAEKLREAAEIISEHPMALQLRTLQTISDVAGDKSNLEHHHHHH | soluble
8 | MIFTYNREHVGDTLMVIVKDSQGAKLDVDRRGQVARVYLQDSKETVAWNIFEVSSLIVIEGAGQITLSDQDIKILNAELLKEGFEDSLVNNIEPTFVVAQIKEIIDHPDSDHLHICQAEINDGKTVQIVCGAPNASVGLKTVAALPGAMMPNGSLIFPGKLRGEDSFGMLCSARELALPNAPQVRGIIELSDQVIVGESFDANKHWKNLEHHHHHH | soluble
9 | MIFVLDVGNTNAVLGVFEEGELRQHWRMETDRHKTEDEYGMLVKQLLEHEGLSFEDVKGIIVSSVVPPIMFALERMCEKYFKIKPLVVGPGIKTGLNIKYENPREVGADRIVNAVAGIHLYGSPLIIVDFGTATTYCYINEEKHYMGGVITPGIMISAEALYSRAAKLPRIEITKPSSVVGKNTVSAMQSGILYGYVGQVEGIVKRMKEEARQEPKVIATGGLAKLISEESNVIDIVDPFLTLKGLYMLYERNANLQHEKGE | not soluble
